Reference: patent US20260008852A1 (CRYSTAL BIOSCIENCE, published 2026)
Residue numbers refer to the chain shown, from its start.

T1: His-tagged human B7-H3 (human, UniProt Q5ZPR3-2 29-245, limits assumed)
T1 construct: Bought His-tagged protein coated on the ELISA plate; also called hu B7-H3; CD276
T1 sequence (looked up): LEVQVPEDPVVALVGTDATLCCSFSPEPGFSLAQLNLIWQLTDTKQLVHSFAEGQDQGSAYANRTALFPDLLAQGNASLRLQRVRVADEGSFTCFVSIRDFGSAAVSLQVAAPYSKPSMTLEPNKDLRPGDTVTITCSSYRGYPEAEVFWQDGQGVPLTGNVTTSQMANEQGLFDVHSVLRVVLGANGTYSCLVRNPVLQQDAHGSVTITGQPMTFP

T2: His-tagged mouse B7-H3 (mouse, UniProt Q8VE98 29-244, limits assumed)
T2 construct: Bought His-tagged protein coated on the ELISA plate; also called mu B7-H3; murine B7-H3
T2 sequence (looked up): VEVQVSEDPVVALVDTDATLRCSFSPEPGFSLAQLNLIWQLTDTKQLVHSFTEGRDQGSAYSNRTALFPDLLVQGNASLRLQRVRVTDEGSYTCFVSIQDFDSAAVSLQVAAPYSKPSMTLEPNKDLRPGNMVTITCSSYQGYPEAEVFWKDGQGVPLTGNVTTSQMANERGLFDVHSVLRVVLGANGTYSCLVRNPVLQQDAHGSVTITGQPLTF

T3: His-tagged cynomolgus monkey B7-H3 (cynomolgus monkey)
T3 chain: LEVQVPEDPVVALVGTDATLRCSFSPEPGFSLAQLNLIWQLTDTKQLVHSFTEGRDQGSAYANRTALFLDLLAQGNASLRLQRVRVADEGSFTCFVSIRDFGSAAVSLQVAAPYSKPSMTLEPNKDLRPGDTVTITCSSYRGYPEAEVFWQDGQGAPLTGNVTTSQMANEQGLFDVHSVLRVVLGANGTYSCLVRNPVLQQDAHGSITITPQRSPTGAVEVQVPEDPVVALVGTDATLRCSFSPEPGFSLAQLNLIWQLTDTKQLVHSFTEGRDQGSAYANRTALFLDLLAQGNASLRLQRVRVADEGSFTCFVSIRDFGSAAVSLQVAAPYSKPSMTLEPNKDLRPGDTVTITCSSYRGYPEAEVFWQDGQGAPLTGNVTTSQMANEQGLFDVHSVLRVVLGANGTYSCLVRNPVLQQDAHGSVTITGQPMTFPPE

T4: B7-H3 on B7-H3-expressing CHO cells (Genescript) (UniProt Q5ZPR3 29-534, limits assumed)
T4 construct: whole, on cells; also called CHO-K1/B7-H3; MFI B7-H3
T4 sequence (looked up): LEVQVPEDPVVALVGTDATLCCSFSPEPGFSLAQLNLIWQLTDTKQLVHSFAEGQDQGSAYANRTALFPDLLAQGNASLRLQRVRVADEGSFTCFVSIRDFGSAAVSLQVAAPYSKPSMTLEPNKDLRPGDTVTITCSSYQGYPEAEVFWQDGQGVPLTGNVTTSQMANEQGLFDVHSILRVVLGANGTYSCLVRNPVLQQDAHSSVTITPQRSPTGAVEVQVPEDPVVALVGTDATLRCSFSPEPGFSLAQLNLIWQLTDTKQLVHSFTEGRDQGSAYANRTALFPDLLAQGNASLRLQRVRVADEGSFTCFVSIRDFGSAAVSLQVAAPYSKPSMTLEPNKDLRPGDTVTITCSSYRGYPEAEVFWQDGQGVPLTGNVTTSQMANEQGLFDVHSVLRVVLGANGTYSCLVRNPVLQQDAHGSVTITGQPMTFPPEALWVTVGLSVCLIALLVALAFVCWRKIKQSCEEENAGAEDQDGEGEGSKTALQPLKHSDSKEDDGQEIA

B1: 40511p1.1.H10 (scFv, V domains shown)
VH: DVQLVESGGGVVRPGESLRLSCAASGFTFSNYAMNWVRQAPGEGLEWVSRINYKGYNITYYADSVKGRFTISRDNSKNTLYLQMNSLRAEDTAVYYCAKSGSNSNNFFDYWGLGTLVTVSS
VL: EIVLTQSPGNLSLSPGERATLSCRASQSVGSQLGWYQQKPGQAPRLLIYGASTRATGIPDRFSGSGSGTEFALTISSLQSEDFAVYYCQQYYDWPPLTFGGGTKVEIK
notes: Tested as scFv-Fc (Expi293 supernatant)
B2: 40511p1.2.G10 (scFv, V domains shown)
VH: B1 VH
VL: B1 VL with N10T, S28T, Q32K, G34A, G57D, A72T, Y92I, D93N, T98S
notes: as for B1
B3: 40511p1.1.H5 (scFv, V domains shown)
VH: B1 VH
VL: EIVLTQSPGTLSLSPGERATLSCRASQSIRSDLAWYQQKPGQAPRLLIYGAASRATGIPARFSGSGSGTEFTLTISSLQSGDFAVYYCQQYNSWPPLTFGGGTKVEIK
notes: as for B1
B4: 40511p1.2.A12 (scFv, V domains shown)
VH: DVQLVESGGGVVRPGESLRLSCAASGFTFSSYAESWVRQAPGEGLEWVSIISGSGGNTFYADSVKGRFTISRDNSKNTLYLQMNSLRAEDTAVYYCARFAYGFFDYWGLGTLVTVSS
VL: EIVLTQSPGTLSVSPGERATLSCRASQTVGSKLAWYQQKPGQPPSLLIYDASTRATGIPDRFSGSGSGTDFTLTISSLQSEDFAVYYCQQYRNWPPLTFGGGTKVEIK
notes: Tested as scFv-Fc (Expi293 supernatant); also called 40511p1.2.Al2
B5: 40579p1.B8 (scFv, V domains shown)
VH: EVQLLESGGGLVQPGGSLRLSCAASGFTFSDYYMSWVRQAPGKGLEWVSGISMSSTIYYADSVKGRFTISRDNSKNTLYLQMNSLRAEDTAVYYCARHRSPYQYRSMDVWGQGTTVTVSS
VL: B4 VL with V13L, T28S, G30N, T53R, D70E, R92N
notes: as for B1
B6: 40579p1.C2 (scFv, V domains shown)
VH: EVQLLESGGDLVQPGGSLRLSCAASGFNFSSYWMSWVRQAPGKGLEWVSGISISYGGNAYYADSVKGRFTVSRDNSKNTLYLQMNSLRAEDTAVYYCGRDRSPYQYRSMDVWGQGTTVTVSS
VL: B4 VL with G9A, L21F, V29I, S31N, P43A, S45R, Y49F, D50S, G57D, R92N
notes: as for B1
B7: 40511p1.2.A4 (scFv, V domains shown)
VH: B4 VH
VL: B4 VL with P43A, S45R, G57D
notes: as for B1
B8: 40511p1.1.G1 (scFv, V domains shown)
VH: B4 VH
VL: B4 VL with R18G
notes: as for B1
B9: 40633p1.2.D11 (scFv, V domains shown)
VH: EVQLESGGGLVQPGGSLRLSCAASGFTVSYYGMSWVRQAPGKGLEWVSAIKQDGSEKYYADSVKGRFTISRDNSKNTLYLQMNSLRAEDTAVYYCARHWNDYSNAMNVWGQGTTVTVSS
VL: QSVLTQPPSASGTPGQRVTISCSGSTSNIAIDFVNWYQQLPGTAPKLLIYTIDQRPSGVPDRFSGSKSGTSASLAISGLQSEDEAVYYCASWDASLNGWVFGRGTKLTVL
notes: as for B1
B10: 40511p1.1.D8 (scFv, V domains shown)
VH: DVQLVESGGGVVRPGESLRLSCAASGFTFSSYAMSWVRQAPGEGLEWVSSISGSGGSTLYADSVKGRFTISRDSSNNSLYLQMNSLRAEDTAVYYCAKARNNFFDYWGLGTLVTVSS
VL: EIVLTQSPGTLTLSPGERATLSCRASRSILTSLAWYQQRPGQAPRLLIYGANSRATGIPDRFSGSGSGTEFTLTISSLQSEDFAVYYCQQYYDWLTITFGGGTKVEIK
notes: as for B1
B11: 40511p1.2.B5 (scFv, V domains shown)
VH: B10 VH
VL: B10 VL with A43T
notes: as for B1
B12: 40633p1.2.D1 (scFv, V domains shown)
VH: EVQLLESGGGLVQPGGSLRLSCAASGFTFDVYGMSWVRQAPGKGLEWVSAINWNGGSTYYADSVKGRFTISRDNSENTLYLQMNSLRAEDTAVYYCAKEKWKHFIYYGMDVWGQGTTVTVSS
VL: QSVLTQPASASGTPGQTVSISCSGSSSNIDSNTANWYQQLPGTAPKLLIYSNNQRPSGVPDRFSGSKSDTSASLAISGLQSEDEGDYYCSAWDDNLNGWLFGGGTKLTVL
notes: as for B1
B13: 40633p1.2.E5 (scFv, V domains shown)
VH: B12 VH with V31G, N52S, W53G, G55S, T58I, E76K, V93A
VL: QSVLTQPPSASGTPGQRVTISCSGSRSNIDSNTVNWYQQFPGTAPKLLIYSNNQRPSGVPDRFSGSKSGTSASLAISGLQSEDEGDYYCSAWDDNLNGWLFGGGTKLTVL
notes: as for B1

Legend:
His-tagged human B7-H3 [1] = target: T1, His-tagged human B7-H3; test: ELISA, coated His-tagged antigen, scFv-Fc 1 ug/ml
His-tagged mouse B7-H3 = target: T2, His-tagged mouse B7-H3; test: ELISA, coated His-tagged antigen, scFv-Fc 1 ug/ml
[2] = target: T3, His-tagged cynomolgus monkey B7-H3; test: ELISA, coated His-tagged antigen, scFv-Fc 1 ug/ml
[3] = target: T4, B7-H3 on B7-H3-expressing CHO cells …; test: flow cytometry, B7-H3-expressing CHO cells, 10 ug/ml
Summary of the method: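 Antibodies at 10 μg/ml in PBS/1% BSA/0.01% NaN3 incubated 60 min on ice with ~1.5e5 cells; parental CHO cells as counterscreen. After washing, read by flow cytometry; values are mean fluorescent intensities (MFI).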

His-tagged human B7-H3 [4] = target: T1, His-tagged human B7-H3; test: ELISA OD450 on hu B7-H3 over OD450 on mu B7-H3

Binder | ELISA OD450 @ 1 ug/ml (His-tagged human B7-H3 [1]) | ELISA OD450 @ 1 ug/ml (His-tagged mouse B7-H3) | ELISA OD450 @ 1 ug/ml [2] | MFI @ 10 ug/ml [3] | hu:mu ratio (His-tagged human B7-H3 [4])
B1 | 0.641 OD450 | 0.138 OD450 | 2.03 OD450 | 22100 MFI | 4.64
B2 | 1.98 OD450 | 1.45 OD450 | 2.37 OD450 | 78500 MFI | 1.37
B3 | 1.71 OD450 | 0.758 OD450 | 2.22 OD450 | 62200 MFI | 2.25
B4 | 2.13 OD450 | 1.7 OD450 | 2.34 OD450 | 77200 MFI | 1.25
B5 | 2.21 OD450 | 1.98 OD450 | 2.08 OD450 | 85500 MFI | 1.12
B6 | 2.12 OD450 | 1.82 OD450 | 2.18 OD450 | 75400 MFI | 1.16
B7 | 2.06 OD450 | 1.55 OD450 | 2.3 OD450 | 82700 MFI | 1.33
B8 | 2.2 OD450 | 1.67 OD450 | 2.28 OD450 | 74500 MFI | 1.32
B9 | 1.53 OD450 | 1.03 OD450 | 1.95 OD450 | 63200 MFI | 1.49
B10 | 2.13 OD450 | 0.891 OD450 | 2.02 OD450 | 79200 MFI | 2.39
B11 | 2.14 OD450 | 0.771 OD450 | 2.12 OD450 | 67900 MFI | 2.78
B12 | 1.49 OD450 | 1.38 OD450 | 1.94 OD450 | 14100 MFI | 1.08
B13 | 2.15 OD450 | 1.92 OD450 | 2.08 OD450 | 86600 MFI | 1.12
